Series [1] concerns the target N-terminally FLAG-tagged citrine-Csx30-degron reporter (Desulfonema ishimotonii). Kind of series: cell-based or functional assay.
Series [2] deals with Cas7-11-Csx29 complex (mammalian codon-optimized) (Desulfonema ishimotonii). Kind of series: cell_activity. Particulars: HEK293FT, citrine-Csx30-DHFR degron reporter.
Series [3] has as its system T1, D. ishimotonii Csx30, full-length.
T1 sequence: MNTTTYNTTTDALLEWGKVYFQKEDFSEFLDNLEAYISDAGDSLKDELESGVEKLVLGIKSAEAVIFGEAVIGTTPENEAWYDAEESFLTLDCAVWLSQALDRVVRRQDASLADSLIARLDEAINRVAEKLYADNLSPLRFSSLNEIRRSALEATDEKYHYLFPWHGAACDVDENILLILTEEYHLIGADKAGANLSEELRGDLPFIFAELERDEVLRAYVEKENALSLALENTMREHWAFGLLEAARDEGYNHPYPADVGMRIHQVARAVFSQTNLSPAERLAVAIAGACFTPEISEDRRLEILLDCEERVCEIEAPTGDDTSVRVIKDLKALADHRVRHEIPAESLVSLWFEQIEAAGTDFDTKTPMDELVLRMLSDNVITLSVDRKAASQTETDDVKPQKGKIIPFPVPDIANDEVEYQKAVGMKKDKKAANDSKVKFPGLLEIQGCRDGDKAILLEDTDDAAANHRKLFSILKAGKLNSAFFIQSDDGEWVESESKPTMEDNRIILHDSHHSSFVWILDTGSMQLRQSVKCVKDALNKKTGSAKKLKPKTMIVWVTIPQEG

The target of series [4] is T2, N-terminal fragment of Csx30 (residues 1-427) (Desulfonema ishimotonii).
T2 construct: Made by Csx29 cleavage of Csx30 in the gel-filtration experiment; expressed as such in the growth assays; also called Csx30-1
T2 chain: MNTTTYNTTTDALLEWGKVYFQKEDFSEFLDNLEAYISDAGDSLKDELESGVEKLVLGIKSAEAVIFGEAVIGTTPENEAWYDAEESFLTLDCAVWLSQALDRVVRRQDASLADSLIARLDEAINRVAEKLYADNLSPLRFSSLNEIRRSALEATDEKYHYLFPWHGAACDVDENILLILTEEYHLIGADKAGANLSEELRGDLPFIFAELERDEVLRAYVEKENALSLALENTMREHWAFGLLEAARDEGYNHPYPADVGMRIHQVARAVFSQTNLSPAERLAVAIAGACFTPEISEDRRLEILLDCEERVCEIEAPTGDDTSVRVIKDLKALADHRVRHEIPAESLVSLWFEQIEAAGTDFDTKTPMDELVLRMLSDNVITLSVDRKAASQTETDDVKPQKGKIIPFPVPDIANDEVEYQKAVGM
Kind of series: gel filtration (Superdex 200 Increase) and SDS-PAGE after cleavage by dCas7-11-crRNA-Csx29-tgRNA. In general terms: Size exclusion chromatography separates by hydrodynamic size, large species first.

For series [5], the target named is T3, D. ishimotonii Csx30, full-length.
T3 chain: T1 sequence

The target of series [6] is T4, dCas7-11-Csx29 complex (Cas7-11 D429A/D654A with Csx29) (Desulfonema ishimotonii). Briefly: structure; cryo-EM 2.84 A; guide-target duplex with U4/C10 flipped out; PFS C(-1) and A(-2) contacted; no PAM; 1 mM MgCl2. Particulars: tags: MBP-Cas7-11-His6; His6-Twin-Strep-SUMO-Csx29. On the procedure: (§1) The Cas7-11-crRNA-Csx29-tgRNA complex was reconstituted by mixing the purified Cas7-11-crRNA-Csx29 complex and the target RNA, at a molar ratio of 1:4. The complex was purified by size-exclusion chromatography on a Superose 6 Increase 10/300 column (GE Healthcare), equilibrated with buffer E (20 mM HEPES-NaOH, pH 7.0, 150 mM NaCl, 1 mM MgCl₂, and 1 mM DTT). The peak fraction containing Cas7-11-crRNA-Csx29-tgRNA was analyzed by TBE-urea gel, and concentrated to an A₂₆₀ of 3.0, using an Amicon Ultra-4 Centrifugal Filter Unit (MWCO 50 kDa). Cryo-EM grids were glow-discharged using PIB-10 Ion Bombarder (JEOL, Japan) with 10 mA current for 3 min. The sample (3 μL) was applied to freshly glow-discharged Au 300 mesh R1.2/1.3 grids (Quantifoil) in a Vitrobot Mark IV (FEI) at 4° C. under 100% humidity conditions, and the excess solution of the sample was blotted with filter paper (Agar Scientific) with a waiting time of 10 s and a blotting time of 4 s. The grids were plunge-frozen into liquid ethane cooled at liquid nitrogen temperature. […] The sample was applied onto freshly glow-discharged Au 300 mesh R0.6/1 grids (Quantifoil) in a Vitrobot Mark IV under similar conditions to those for the Cas7-11-crRNA-Csx29-tgRNA complex. […] Micrographs were recorded at a nominal magnification of ×105,000 with a pixel size of 0.83 Å in a total exposure of 48 e⁻/Å² per 48 frames with exposure time of 2.5 s. […]
T4 sequence (chain, as listed by the source D429A D654A D429A D654A): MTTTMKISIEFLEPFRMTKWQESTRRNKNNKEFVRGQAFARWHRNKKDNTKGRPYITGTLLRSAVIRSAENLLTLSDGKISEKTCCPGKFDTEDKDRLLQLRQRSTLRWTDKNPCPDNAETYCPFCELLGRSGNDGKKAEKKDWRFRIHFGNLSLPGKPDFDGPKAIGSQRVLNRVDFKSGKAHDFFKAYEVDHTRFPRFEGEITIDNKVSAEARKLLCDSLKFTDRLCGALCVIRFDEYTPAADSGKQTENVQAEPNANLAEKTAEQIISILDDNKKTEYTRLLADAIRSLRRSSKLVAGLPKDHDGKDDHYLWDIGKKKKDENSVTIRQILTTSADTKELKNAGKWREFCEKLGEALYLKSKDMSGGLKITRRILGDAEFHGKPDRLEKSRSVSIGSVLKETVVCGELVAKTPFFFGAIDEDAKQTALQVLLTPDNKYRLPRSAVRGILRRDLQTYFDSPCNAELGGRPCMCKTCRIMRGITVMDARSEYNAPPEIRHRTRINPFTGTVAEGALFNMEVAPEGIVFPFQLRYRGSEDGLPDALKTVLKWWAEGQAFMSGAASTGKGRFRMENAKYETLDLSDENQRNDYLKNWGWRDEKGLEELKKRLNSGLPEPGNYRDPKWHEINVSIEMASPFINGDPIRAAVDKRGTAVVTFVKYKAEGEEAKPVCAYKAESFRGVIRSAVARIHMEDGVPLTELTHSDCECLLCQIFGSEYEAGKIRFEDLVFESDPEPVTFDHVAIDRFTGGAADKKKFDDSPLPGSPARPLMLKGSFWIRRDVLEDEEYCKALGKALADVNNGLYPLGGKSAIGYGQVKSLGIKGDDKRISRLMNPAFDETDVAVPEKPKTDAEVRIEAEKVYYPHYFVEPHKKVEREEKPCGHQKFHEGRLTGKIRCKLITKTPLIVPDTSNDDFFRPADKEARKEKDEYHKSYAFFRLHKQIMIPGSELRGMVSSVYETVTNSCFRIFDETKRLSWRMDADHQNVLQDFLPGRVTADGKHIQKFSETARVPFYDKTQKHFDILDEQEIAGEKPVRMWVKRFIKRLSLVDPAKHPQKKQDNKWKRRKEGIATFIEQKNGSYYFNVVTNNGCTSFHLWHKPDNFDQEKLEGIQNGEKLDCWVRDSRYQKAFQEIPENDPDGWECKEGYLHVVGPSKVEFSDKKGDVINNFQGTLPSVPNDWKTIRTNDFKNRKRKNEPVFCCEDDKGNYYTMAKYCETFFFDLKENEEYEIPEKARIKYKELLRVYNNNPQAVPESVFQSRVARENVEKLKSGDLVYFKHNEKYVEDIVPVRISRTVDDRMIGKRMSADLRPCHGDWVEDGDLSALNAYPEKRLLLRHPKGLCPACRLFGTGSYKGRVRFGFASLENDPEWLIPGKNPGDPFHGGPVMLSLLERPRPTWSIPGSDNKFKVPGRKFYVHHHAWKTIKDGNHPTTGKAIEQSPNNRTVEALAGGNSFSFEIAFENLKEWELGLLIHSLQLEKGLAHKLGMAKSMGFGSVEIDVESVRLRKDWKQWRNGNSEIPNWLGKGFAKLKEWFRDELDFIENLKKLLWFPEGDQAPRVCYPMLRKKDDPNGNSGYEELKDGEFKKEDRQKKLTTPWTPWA

For series [7], the target named is T4, dCas7-11-Csx29 complex (Cas7-11 …). Kind of series: structure; cryo-EM 2.49 A, target-free; 5' tag anchored by Cas7.1/Cas7.2. Particulars: tags: MBP-Cas7-11-His6; His6-Twin-Strep-SUMO-Csx29. The protocol: as §1

“Also recorded” adds a separate entry of the source. Like-named read-outs stand apart in the source and are kept apart here.

Cas7-11-Csx29 complex (mammalian codon-optimized) (Desulfonema ishimotonii), sequence (chain, as listed by the source): as the sequence (chain, as listed by the source D429A D654A D429A D654A) above, with A429D, A654D counted along it

Molecule “Csx29, mammalian codon-optimized, expressed in HEK293FT cells with Cas7-11 (enzyme)” showed a citrine fluorescence in HEK293FT cells in series [1] of 3 fold. In series [2], “Gluc-targeting guide RNA ; Gaussia luciferase mRNA target” gave an activity (fold citrine fluorescence) of 3.

As to “Csx29 H615A/C658A (catalytically inactivated Csx29)”, the “in vitro cleavage of Csx30 (SDS-PAGE)” value in series [3] was “The H615A/C658A mutations in Csx29 abolished the Csx30 cleavage”.

B1: C-terminal fragment of Csx30 (residues 428-565) (other)
chain: KKDKKAANDSKVKFPGLLEIQGCRDGDKAILLEDTDDAAANHRKLFSILKAGKLNSAFFIQSDDGEWVESESKPTMEDNRIILHDSHHSSFVWILDTGSMQLRQSVKCVKDALNKKTGSAKKLKPKTMIVWVTIPQEG
notes: Made by Csx29 cleavage of Csx30; also called Csx30-2
B1: the binding result in series [4] is “no binding”.

B2: D. ishimotonii Csx29, expressed as His6-Twin-Strep-SUMO-Csx29 (protein)
chain: HHHHHHMSNPIRDIQDRLKTAKFDNKDDMMNLASSLYKYEKQLMDSSEATLCQQGLSNRPNSFSQLSQFRDSDIQSKAGGQTGKFWQNEYEACKNFQTHKERRETLEQIIRFLQNGAEEKDADDLLLKTLARAYFHRGLLYRPKGFSVPARKVEAMKKAIAYCEIILDKNEEESEALRIWLYAAMELRRCGEEYPENFAEKLFYLANDGFISELYDIRLFLEYTEREEDNNFLDMILQENQDRERLFELCLYKARACFHLNQLNDVRIYGESAIDNAPGAFADPFWDELVEFIRMLRNKKSELWKEIAIKAWDKCREKEMKVGNNIYLSWYWARQRELYDLAFMAQDGIEKKTRIADSLKSRTTLRIQELNELRKDAHRKQNRRLEDKLDRIIEQENEARDGAYLRRNPPCFTGGKREEIPFARLPQNWIAVHFYLNELESHEGGKGGHALIYDPQKAEKDQWQDKSFDYKELHRKFLEWQENYILNEEGSADFLVTLCREIEKAMPFLFKSEVIPEDRPVLWIPHGFLHRLPLHAAMKSGNNSNIEIFWERHASRYLPAWHLFDPAPYSREESSTLLKNFEEYDFQNLENGEIEVYAPSSPKKVKEAIRENPAILLLLCHGEADMTNPFRSCLKLKNKDMTIFDLLTVEDVRLSGSRILLGACESDMVPPLEFSVDEHLSVSGAFLSHKAGEIVAGLWTVDSEKVDECYSYLVEEKDFLRNLQEWQMAETENFRSENDSSLFYKIAPFRIIGFPAE
Turning to B2, in series [5], the “cleavage of Csx30 within the Csx30-Csx31-DiRpoE complex (gel filtration, SDS-PAGE)” value is given as “Like isolated Csx30, Csx30 in the Csx30-Csx31-DiRpoE complex was cleaved by the Cas7-11-Csx29 complex”; the “in vitro cleavage of Csx30 (SDS-PAGE)” value was “Cas7-11-crRNA-Csx29 cleaves Csx30 into two fragments, Csx30-1 (-50 kDa) and Csx30-2 (-15 kDa), only in the presence of the tgRNA; also recorded: the D429A/D654A catalytic mutations in Cas7-11 ... unexpectedly, improved the Csx30 cleavage by Csx29”; the “in vitro cleavage of Csx30 (SDS-PAGE) with target RNAs TR, CTR, NTR” value was “Csx30 was cleaved by the Cas7-11-Csx29 complex efficiently in the presence of CTR, but not TR and NTR”.

B3: crRNA (38 nt, 15-nt 5' tag + 23-nt spacer) ; target RNA with non-matching PFS (tgRNA/CTR) (ssRNA ; ssRNA)
RNA 1: UUGAUGUCACGGAACCUUUGUUGUCUUCGACAUGGGUA
RNA 2: GGAUUACCCAUGUCGAAGACAACAAAGCAAGGC
For B3, the binding result in series [6] is reported as “binds”.

Regarding UUGAUGUCACGGAACCUUUGUUGUCUUCGACAUGGGUA (ssRNA) [crRNA (38 nt, 15-nt 5' tag + 23-nt spacer)], the binding result in series [7] is given as “binds”.

For the origin of these results see patent US20240132883A1, “RNA-TRIGGERED PROTEIN CLEAVAGE AND APPLICATIONS BY THE CRISPR CAS7-11-CSX29 COMPLEX” (Massachusetts Institute of Technology, published 2024).
